Experimental data taken from patent US20030200558A1 (MONSANTO, published 2003).
Substitutions are numbered along the chain they refer to.

B1: β-conglycinin β subunit mutant 39335-3 (other)
chain: MDYKDDDDKLKVREDENIPFYLRSSNSFQTLFENQNGRIRLIQRFNKRSPQLENLRDYIIVQFQSKPNTILLPIHADADFLLFVLSGRAILTLVNNDDRDSYNLHPGDAQRIPAGTTYYLVNPHDHQNLKIIKLAIIVNKPGRYDDFFLSSTQAQQSYLQGFSHNILETSFHSEFEEINRVLLGEEEEQRQQEGIIVELSKEQIRQLSRRAKSSSRKTISSEDEPFNLRSRNIIYSNNFGKFFEITPEKTPQLRDLDIFLSSVDINEGALLLPHFNSKAIVILVIIEGDANIELVGIKEQQQKQKQEEEPLEVQRYRAELSEDDVFVIPAAYPFVVNATSNLNFLAFGINAENNQRNFLAGEKDNVVRQIERQVQELAFPGSAQDVERLLKKQRESYFVDAQPQQKEEGSKGRKGPFPSILGALY
B2: β-conglycinin β subunit mutant 39335-6 (other)
chain: B1 chain with D108I, P123I, T250I, P251I
B3: β-conglycinin β subunit mutant 39335-1 (other)
chain: MDYKDDDDKLKVREDENNPFYLRSSNSFQTLFENQNGRIRLIQRFNKRSPQLENLRDYRIVQFQSKPNTIILPHHADADFLLFVLSGRAILTLVNNDDRDSYILHPGDAQRIPAGTTYYLVNPHDHQNLKIIILAIPVNKPGRYDDFFLSSTQAQQSYLQGFSHNILETSFHSEFEEINRVLLGEEEEQRQQEGIIVELSKEQIRQLSRRAKSSSRKTISSEDEPFNLRSRNPIYSNNFGKIFEITPEKIIQLRDLDIFLSSVDINEGALLLPHFNSKAIVIIIINEGDANIEIVGIKEQQQKQKQEEEILEVQRYRAELSEDDVFVIPAAYPIVVNATSNINFLAFGINAENIQRNFLAGEKDNVVRQIERQVQELAFPGSAQDVERLLKKQRESYIVDAQPQQKEEGSKGRKGPFPSILGALY
B4: β-conglycinin β subunit mutant 39335-2 (other)
chain: B3 chain with R59I, L81I, I242F, I283L, I284V, I294L, I310P
B5: β-conglycinin β subunit mutant 39335-31 (other)
chain: MDYKDDDDKLKVREDENNPFYLRSSNSFQTLFENQNGRIRLIQRFNKRSPQLENLRDYRIVQFQSKPNTIILPHHADADFIIIILSGRAIITIVNNDDRDSYNIHPGDAIRIPAGTTYYIINPHDHQNLKIIKIAIPVNKPGRYDDFFLSSTQAQQSYLQGFSHNILETSFHSEFEEINRVLLGEEEEQRQQEGVIVELSKEQIRQLSRRAKSSSRKTISSEDEPFNLRSRNPIYSNNFGKIFEITPEKTPQLRDLDIFISSVDINEGALILPHFNSKAIVILVINEGDANIEIVGIKEQQQKQKQEEEPLEVQRYRAELSEDDIIVIPAAYPFVINATSNLNFLAFGINAENNQRNFLAGEKDNVVRQIERQVQELAFPGSAQDVERLLKKQRESYFVDAQPQQKEEGSKGRKGPFPSILGALY
B6: β-conglycinin β subunit mutant 39335-42 (other)
chain: B5 chain with F63I, I91L, I93L, I260L, I271L, I294L, I336V
B7: β-conglycinin β subunit mutant 39335-46 (other)
chain: B5 chain with F63I, I110Q, I242F, I271L, I294L, I336V, F344I, L345I, F347I
B8: β-conglycinin β subunit mutant 39335-64 (other)
chain: B5 chain with F63I, I242F, L272I
B9: β-conglycinin β subunit mutant 39335-66 (other)
chain: B5 chain with I91L, I93L, I110Q, I260L, I271L, I294L, I325V, I326F, I336V, F398I
B10: β-conglycinin β subunit mutant 39335-57 (other)
chain: B5 chain with F63I, I242F, I271L, I326F, L345I
B11: β-conglycinin β subunit mutant 39335-36 (other)
chain: B5 chain with I91L, I93L, I242F, I325V, I326F
B12: β-conglycinin β subunit mutant 39335-56 (other)
chain: B5 chain with F63I, I271L, L345I, F398I
B13: β-conglycinin β subunit mutant 39335-49 (other)
chain: B5 chain with I91L, I93L, I110Q, I242F, I271L, I294L, I336V, F344I, L345I, F347I
B14: β-conglycinin β subunit mutant 39335-51 (other)
chain: B5 chain with F63I, I242F, I271L, I336V, F344I, L345I, F347I
B15: β-conglycinin β subunit mutant 39335-43 (other)
chain: B5 chain with I91L, I93L, I260L, I271L, I294L, I336V, F344I, L345I, F347I
B16: β-conglycinin β subunit mutant 39335-38 (other)
chain: B5 chain with I91L, I93L, I110Q, I242F, I260L, I294L, I325V, I326F, I336V
B17: β-conglycinin β subunit mutant 39335-70 (other)
chain: MDYKDDDDKLKVREDENNPFYLRSSNSFQTLFENQNGRIRLIQRFNKRSPQIENLRDYRIVQFQSKPNTIILPHHADADFIIIILSGRAIITIVNNDDRDSYNIHPGDAQRIPAGTTYYIINPHDHQNLKIIKIAIPVNKPGRYDDFFLSSTQAQQSYLQGFSHNILETSFHSEFEEINRVLLGEEEEQRQQEGVIVELSKEQIRQLSRRAKSSSRKTISSEDEPFNLRSRNPIYSNNFGKFFEITPEKTPQIRDLDIFLSSVDINEGALLLPHFNSKAIVILVINEGDANIELVGIKEQQQKQKQEEEPLEVQRYRAELSEDDIIVIPAAYPFVVNATSNLNIIAIGINAENNQRNFLAGEKDNVVRQIERQVQELAFPGSAQDVERLLKKQRESYFVDAQPQQKEEGSKGRKGPFPSILGALY
B18: β-conglycinin β subunit mutant 39335-71 (other)
chain: B17 chain with I91L, I93L
B19: β-conglycinin β subunit mutant 39335-74 (other)
chain: B17 chain with I52L, I91L, I93L, I253L, I325V, I326F, I344F, I345L, I347F, F398I
B20: epitope (FLAG)-tagged form of the β-conglycinin β subunit encoded by pMON39328 (other)
chain: B1 chain with I18N, I42L, I59R, I74H, I137P, I195V, I233P, I286N
notes: Expressed in E. coli. pMON39335 encodes the same protein (silent change TTA to CTT at Leu24); also called pMON39335
B21: mature form (plus additional methionine encoded by start codon) of the β-conglycinin β subunit encoded by pMON39329 (other)
chain: MLKVREDENNPFYLRSSNSFQTLFENQNGRIRLLQRFNKRSPQLENLRDYRIVQFQSKPNTILLPHHADADFLLFVLSGRAILTLVNNDDRDSYNLHPGDAQRIPAGTTYYLVNPHDHQNLKIIKLAIPVNKPGRYDDFFLSSTQAQQSYLQGFSHNILETSFHSEFEEINRVLLGEEEEQRQQEGVIVELSKEQIRQLSRRAKSSSRKTISSEDEPFNLRSRNPIYSNNFGKFFEITPEKTPQLRDLDIFLSSVDINEGALLLPHFNSKAIVILVINEGDANIELVGIKEQQQKQKQEEEPLEVQRYRAELSEDDVFVIPAAYPFVVNATSNLNFLAFGINAENNQRNFLAGEKDNVVRQIERQVQELAFPGSAQDVERLLKKQRESYFVDAQPQQKEEGSKGRKGPFPSILGALY
notes: expressed in E. coli; also called native form
B22: β-conglycinin β subunit mutant 39328-63 (other)
chain: MDYKDDDDKLKVREDENNPFWLRSSNSFQTLFENQNGRIRLLQRFNKRSPQLENLRDWRIVQFQSKPNTILLPHHADADFLLFVLSGRAILTLVNNDDRDSWNLHPGDAQRIPAGTTYYLVNWHDHQNLKIIKLAIPVNKPGRWDDFFLSSTQAQQSWLQGFSHNILETSFHSEFEEINRVLLGEEEEQRQQEGVIVELSKEQIRQLSRRAKSSSRKTISSEDEPFNLRSRNPIYSNNFGKFFEITPEKTWQLRDLDIFLSSVDINEGALLLPHFNSKAIVILVINEGDANIELVGIKEQQQKQKQEEEPLEVQRWRAELSEDDVFVIPAAYPFVVNATSNLNFLAFGINAENNQRNFLAGEKDNVVRQIERQVQELAFPGSAQDVERLLKKQRESWFVDAQPQQKEEGSKGRKGPFPSILGALY
B23: β-conglycinin β subunit mutant 39328-27 (other)
chain: B22 chain with H74W, Y118W, Y119W, W123P, W144Y, W158Y, W251P, W316Y, W397Y
B24: β-conglycinin β subunit mutant 39328-36 (other)
chain: B22 chain with W21Y, P225W, Y235W, W397Y
B25: β-conglycinin β subunit mutant 39328-65 (other)
chain: B22 chain with W251P, Y332W
B26: β-conglycinin β subunit mutant 39328-59 (other)
chain: B22 chain with Y119W, W251P

Target: the molecule itself
Test: sucrose gradient sedimentation, anti-FLAG western (self-assembly)

Does B1 bind?
Result: no binding

Does B2 bind?
Result: no binding

Does B3 bind?
Result: no binding

Does B4 bind?
Result: no binding

Does B5 bind?
Result: no binding

Does B6 bind?
Result: no binding

Does B7 bind?
Result: no binding

Does B8 bind?
Result: no binding

Does B9 bind?
Result: no binding

Does B10 bind?
Result: no binding

Does B11 bind?
Result: no binding

Does B12 bind?
Result: no binding

Does B13 bind?
Result: no binding

Does B14 bind?
Result: no binding

Does B15 bind?
Result: no binding

Does B16 bind?
Result: no binding

Does B17 bind?
Result: no binding

Does B18 bind?
Result: no binding

Does B19 bind?
Result: no binding

Target: the molecule itself
Test: as above
Remark: another data set of the same source
Description: (§1) To determine if the recombinant forms of β subunit expressed in E. coli from pMON39328 and pMON39329 could self-assemble to form trimers, aliquots of the soluble protein fraction from E. coli lysates are layered onto 12 ml of a 5-25% sucrose density gradient and centrifuged at 36,000 rpm for 17.5 hours at 20° C. (Sorvall TH-641 rotor; Sorvall Ultra Pro 80 ultracentrifuge). Following centrifugation, the gradient is divided into fractions using a Labconco Autodensi-Flow instrument (Labconco, Kansas City, Mo.), and each fraction is analyzed by western blot analysis using Anti-FLAG M2 antibody (Stratagene Corporation, LaJolla, Calif.) to determine which fractions contained β-conglycinin β subunit. 7S and […] soy protein fractions, as well as ovalbumin (45 kD) and aldolase (158 kD), are run as size markers on separate gradients.

Does B20 bind?
Result: binds

Does B21 bind?
Result: binds

Target: the molecule itself
Test: as above
Remark: another data set of the same source
Description: as §1
This example sets forth confirmation of the protein structure from the expression of modified β-conglycinin β subunit clones. The assembly properties of the following modified forms of the β subunit (indicated by mutant ID number), each containing a different tryptophan substitution, are determined as described in Example 6. Western blot analysis of sucrose gradient fractions is carried out as in Example 6 using anti-FLAG antibody.

Does B22 bind?
Result: no binding

Does B23 bind?
Result: no binding

Does B24 bind?
Result: no binding

Does B25 bind?
Result: no binding

Does B26 bind?
Result: no binding
